In assay [1] the target is T1, human MCP-2 (human), P80075.
T1 chain: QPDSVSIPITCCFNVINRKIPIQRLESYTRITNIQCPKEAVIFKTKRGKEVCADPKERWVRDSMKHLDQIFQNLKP
In words: 125I-MCP-2 binding to CCR2 on THP-1 cells, radio-ligand competition.

Assay [2] deals with T2, human monocyte chemoattractant protein-1 (MCP-1) (human), P13500. Nature of the assay: 125I-MCP-1 binding to THP-1 cells, radio-ligand competition.
In assay [3] the target is T2, human monocyte chemoattractant …. Nature of the assay: cell-based or functional assay.
Assay [4] shares this target. In words: SET, BioVeris, Fab, rh MCP-1.
The target is the same in assay [5]. Nature of the assay: SET, IGEN (BioVeris).
Assay [6] shares this target. In words: SET, BioVeris, IgG1, rh MCP-1.
In assay [7] the target is cynomolgus monkey MCP-1 (cynomolgus monkey), P61274. In words: SET, BioVeris, IgG1, cyno MCP-1.
Assay [8] shares this target. In words: SET, BioVeris, cyno MCP-1.

T2 sequence (P13500 other isoform, or with tags, fused parts or gaps, form in doubt): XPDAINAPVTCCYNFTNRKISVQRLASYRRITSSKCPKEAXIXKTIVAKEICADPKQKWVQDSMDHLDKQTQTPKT
cynomolgus monkey MCP-1 (cynomolgus monkey), P61274, sequence (P61274 24-99 limits assumed): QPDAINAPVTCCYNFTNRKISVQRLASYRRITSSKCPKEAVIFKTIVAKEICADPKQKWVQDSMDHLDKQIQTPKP

B1: MOR03754 Fab (Fab)
chain 1: QVQLVESGGGLVQPGGSLRLSCAASGFTFRSYGMSWVRQAPGKGLEWVSSIEHKWSGYATTYAASVKGRFTISRDNSKNTLYLQMNSLRAEDTAVYYCARFEFTPWTYFDFWGQGTLVTVSS
chain 2: DIELTQPPSVSVAPGQTARISCSGDNLGKKYVYWYQQKPGQAPVLVIYDDDNRPSGIPERFSGSNSGNTATLTISGTQAEDEADYYCQSYTAQSSASFGGGTKLTVL
modifications: not checked
Regarding B1, the IC50 in assay [1] is above 2000 nM.

B2: MOR03790 Fab (Fab, V domains shown)
VH: QVELVQSGAEVKKPGSSVKVSCKASGGTFSSYGISWVRQAPGQGLEWMGGIIPIFGTANYAQKFQGRVTITADESTSTAYMELSSLRSEDTAVYYCARYDGIYGELDFWGQGTLVTVSS
VL: not shown
The molecule B2 had an IC50 in assay [2] of 0.26 nM. The molecule also showed an Inhibition of Ca2+ Mobilization IC50 in assay [3] of 25 nM. Also, the Kd in assay [4] and in assay [5] was 0.12 nM throughout.

B3: MOR03781 Fab (Fab, V domains shown)
VH: QVELVQSGAEVKKPGSSVKVSCKASGGTFSSYGISWVRQAPGQGLEWMGGIIPIFGTANYAQKFQGRVTITADESTSTAYMELSSLRSEDTAVYYCARYDGIYGELDFWGQGTLVTVSS
VL: not shown
B3 displayed an IC50 in assay [2] of 0.18 nM. Moreover, the Inhibition of Ca2+ Mobilization IC50 in assay [3] is 21.8 nM. Further, the Kd in assay [4] and in assay [5] was 0.03 nM throughout.

B4: MOR03790 IgG1 (antibody, V domains shown)
VH: QVELVQSGAEVKKPGSSVKVSCKASGGTFSSYGISWVRQAPGQGLEWMGGIIPIFGTANYAQKFQGRVTITADESTSTAYMELSSLRSEDTAVYYCARYDGIYGELDFWGQGTLVTVSS
VL: not shown
In assay [2], B4 had an IC50 of 0.03 nM. For the same molecule, the Kd in assay [6] and in assay [5] was 0.07 nM in each case. Besides, the Inhibition of Ca2+ Mobilization IC50 in assay [3] is 4.26 nM.

B5: MOR03850 Fab (Fab, V domains shown)
VH: QVELVQSGAEVKKPGSSVKVSCKASGGTFSSYGISWVRQAPGQGLEWMGAINPLAGHTHYAQKFQGRVTITADESTSTAYMELSSLRSEDTAVYYCARYDGIYGELDFWGQGTLVTVSS
VL: not shown
In assay [2], B5 returned an IC50 of 0.16 nM. Also, the Inhibition of Ca2+ Mobilization IC50 in assay [3] is 28.4 nM. The Kd in assay [4] and in assay [5] was 0.04 nM in each case.

B6: MOR03850 IgG1 (antibody)
chain 1: QVELVQSGAEVKKPGSSVKVSCKASGGTFSSYGISWVRQAPGQGLEWMGAINPLAGHTHYAQKFQGRVTITADESTSTAYMELSSLRSEDTAVYYCARYDGIYGELDFWGQGTLVTVSS
chain 2: not shown
modifications: not checked
In assay [2], B6 showed an IC50 of 0.05 nM. Also, the Kd is 0.011 nM in assay [6], 0.021 nM in assay [7], 0.01 nM in assay [8] and 0.01 nM in assay [5]. The same molecule displayed an Inhibition of Ca2+ Mobilization IC50 in assay [3] of 9.47 nM.

B7: MOR03781 IgG1 (antibody, V domains shown)
VH: QVELVQSGAEVKKPGSSVKVSCKASGGTFSSYGISWVRQAPGQGLEWMGGIIPIFGTANYAQKFQGRVTITADESTSTAYMELSSLRSEDTAVYYCARYDGIYGELDFWGQGTLVTVSS
VL: not shown
B7 registered an IC50 in assay [2] of 0.02 nM. Also, the Kd in assay [6] and in assay [5] was 0.02 nM each time. For the same molecule, the Inhibition of Ca2+ Mobilization IC50 in assay [3] amounted to 10.9 nM.

As a reminder, the IC50 is the concentration needed to halve the response being measured. As a reminder, the Kd is the free concentration of one partner at which half of the binding sites on the other are occupied at equilibrium, for simple one-to-one binding.
